Literature values as cited in article PMC10941800.
Read-outs that look alike come from different tables or passages of the source.

Tests used:
Conditions in all cases: cited from earlier work
[1] = target: measles virus hemagglutinin (Measles morbillivirus) (UniProt P08362)
[2] = target: measles virus hemagglutinin (Measles morbillivirus) (UniProt P08362); remark: listed apart in the source
[3] = target: measles virus hemagglutinin (Measles morbillivirus) (UniProt P08362); remark: listed apart in the source

Sequence of UniProt P08362 (P08362 59-617): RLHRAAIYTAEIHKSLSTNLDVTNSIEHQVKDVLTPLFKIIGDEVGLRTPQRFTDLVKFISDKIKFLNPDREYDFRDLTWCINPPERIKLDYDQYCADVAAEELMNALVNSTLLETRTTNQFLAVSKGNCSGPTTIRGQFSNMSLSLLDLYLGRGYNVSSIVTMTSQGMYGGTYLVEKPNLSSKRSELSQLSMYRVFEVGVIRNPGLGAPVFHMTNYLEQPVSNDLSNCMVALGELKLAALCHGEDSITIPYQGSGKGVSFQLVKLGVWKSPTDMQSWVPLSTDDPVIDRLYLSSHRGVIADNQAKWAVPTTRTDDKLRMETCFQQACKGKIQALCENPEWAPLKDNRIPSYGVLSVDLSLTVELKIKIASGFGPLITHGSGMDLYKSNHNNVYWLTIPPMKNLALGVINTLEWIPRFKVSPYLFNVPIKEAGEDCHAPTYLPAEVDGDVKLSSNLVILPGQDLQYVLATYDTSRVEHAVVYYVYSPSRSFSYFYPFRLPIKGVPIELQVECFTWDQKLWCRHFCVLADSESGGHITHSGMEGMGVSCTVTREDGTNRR

Substance: CD46 (from UniProt P15529)
- Kd [1]: 200 nM

Substance: Nectin-4 (from UniProt Q96NY8)
- Kd [2]: 670 nM

Substance: SLAM (from UniProt Q13291)
- Kd [3]: 170 nM
